The results in this text go back to patent US20100286365A1 (AMYLIN PHARMACEUTICALS, published 2010).

The IC50 is the point on the concentration scale where inhibition reaches its midpoint.

The target in assay [1] is Recombinant DPP-IV. The assay is described as follows: cell-based or functional assay.
Assay [2] has as its target T1, GLP-1 receptor endogenously expressed by the thyroid c-cell carcinoma line 6-23 (UniProt P32301 22-463).
T1 sequence (looked up): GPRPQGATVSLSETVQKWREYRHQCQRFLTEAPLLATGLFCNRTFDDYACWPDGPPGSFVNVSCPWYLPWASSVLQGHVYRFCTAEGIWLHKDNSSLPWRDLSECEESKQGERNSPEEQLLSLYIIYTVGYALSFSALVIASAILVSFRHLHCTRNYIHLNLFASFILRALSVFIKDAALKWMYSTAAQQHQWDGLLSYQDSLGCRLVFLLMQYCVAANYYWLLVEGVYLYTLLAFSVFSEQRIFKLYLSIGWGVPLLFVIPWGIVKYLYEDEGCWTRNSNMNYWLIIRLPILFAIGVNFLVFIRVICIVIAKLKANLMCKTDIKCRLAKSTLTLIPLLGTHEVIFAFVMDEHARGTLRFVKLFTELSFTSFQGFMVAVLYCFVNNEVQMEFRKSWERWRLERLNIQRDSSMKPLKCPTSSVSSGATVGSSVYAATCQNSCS
The assay is described as follows: cell-based or functional assay.

Assay [3] has as its target T2, ACE from rabbit lung (rabbit, UniProt P12822 34-1310, limits assumed).
T2 sequence (looked up): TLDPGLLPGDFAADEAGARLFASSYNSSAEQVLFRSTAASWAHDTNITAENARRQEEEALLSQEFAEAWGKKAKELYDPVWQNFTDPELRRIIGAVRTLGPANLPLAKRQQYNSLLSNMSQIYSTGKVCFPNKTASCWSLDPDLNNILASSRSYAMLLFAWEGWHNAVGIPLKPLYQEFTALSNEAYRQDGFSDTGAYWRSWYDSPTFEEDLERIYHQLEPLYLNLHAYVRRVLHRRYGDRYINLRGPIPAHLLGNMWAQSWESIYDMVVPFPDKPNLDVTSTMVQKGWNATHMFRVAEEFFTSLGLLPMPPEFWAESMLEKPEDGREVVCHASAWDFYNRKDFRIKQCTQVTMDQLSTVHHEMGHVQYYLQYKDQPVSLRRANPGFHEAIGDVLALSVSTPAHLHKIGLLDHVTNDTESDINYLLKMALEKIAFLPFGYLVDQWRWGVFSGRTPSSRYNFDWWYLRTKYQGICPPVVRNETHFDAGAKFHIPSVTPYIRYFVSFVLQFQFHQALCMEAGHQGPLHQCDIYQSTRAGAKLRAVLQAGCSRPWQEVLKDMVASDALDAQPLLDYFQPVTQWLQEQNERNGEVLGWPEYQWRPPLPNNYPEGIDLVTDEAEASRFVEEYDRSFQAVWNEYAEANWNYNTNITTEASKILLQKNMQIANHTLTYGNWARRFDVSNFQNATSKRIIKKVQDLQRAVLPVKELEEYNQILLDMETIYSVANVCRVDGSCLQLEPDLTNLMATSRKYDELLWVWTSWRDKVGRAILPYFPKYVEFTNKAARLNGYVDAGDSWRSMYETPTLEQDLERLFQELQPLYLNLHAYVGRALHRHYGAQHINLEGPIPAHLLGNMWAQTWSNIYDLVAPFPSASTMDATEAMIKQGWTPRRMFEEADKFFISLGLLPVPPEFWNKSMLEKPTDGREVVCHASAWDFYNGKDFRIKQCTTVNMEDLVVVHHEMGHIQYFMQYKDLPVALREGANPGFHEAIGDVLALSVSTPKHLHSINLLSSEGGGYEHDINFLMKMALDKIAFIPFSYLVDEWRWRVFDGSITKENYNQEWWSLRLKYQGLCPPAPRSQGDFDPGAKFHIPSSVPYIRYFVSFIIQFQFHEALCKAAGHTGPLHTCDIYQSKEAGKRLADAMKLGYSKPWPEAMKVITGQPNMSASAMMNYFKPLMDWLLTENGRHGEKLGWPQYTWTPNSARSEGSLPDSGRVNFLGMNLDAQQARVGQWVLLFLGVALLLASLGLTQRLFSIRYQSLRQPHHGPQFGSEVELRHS
In words: cell-based or functional assay.

The target in the next assay is T3, human GIP receptor (human, UniProt P48546 22-466).
T3 construct: whole, on cells; Membrane fractions of HEK-GIPR cells were used; also called HEK-GIPR
T3 sequence (looked up): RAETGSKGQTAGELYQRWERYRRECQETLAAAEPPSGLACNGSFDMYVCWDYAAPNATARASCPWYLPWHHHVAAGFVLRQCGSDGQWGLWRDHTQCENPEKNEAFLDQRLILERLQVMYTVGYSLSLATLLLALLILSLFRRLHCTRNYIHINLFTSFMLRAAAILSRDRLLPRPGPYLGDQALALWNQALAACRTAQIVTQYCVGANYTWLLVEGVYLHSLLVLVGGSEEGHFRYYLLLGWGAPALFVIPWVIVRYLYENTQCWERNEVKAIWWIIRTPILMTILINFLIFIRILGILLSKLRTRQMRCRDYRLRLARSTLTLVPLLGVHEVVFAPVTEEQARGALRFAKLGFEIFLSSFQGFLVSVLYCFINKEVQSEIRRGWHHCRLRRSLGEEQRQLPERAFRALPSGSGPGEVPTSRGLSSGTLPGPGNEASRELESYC
The assay is described as follows: displacement of 30 pM 125I-GIP from HEK-GIPR membranes by 10 nM conjugate, relative to human GIP (100%).

Assay [4] deals with T4, GLP-1 receptor endogenously expressed by RIN m5f cells (UniProt P32301 22-463, limits assumed).
T4 sequence (looked up): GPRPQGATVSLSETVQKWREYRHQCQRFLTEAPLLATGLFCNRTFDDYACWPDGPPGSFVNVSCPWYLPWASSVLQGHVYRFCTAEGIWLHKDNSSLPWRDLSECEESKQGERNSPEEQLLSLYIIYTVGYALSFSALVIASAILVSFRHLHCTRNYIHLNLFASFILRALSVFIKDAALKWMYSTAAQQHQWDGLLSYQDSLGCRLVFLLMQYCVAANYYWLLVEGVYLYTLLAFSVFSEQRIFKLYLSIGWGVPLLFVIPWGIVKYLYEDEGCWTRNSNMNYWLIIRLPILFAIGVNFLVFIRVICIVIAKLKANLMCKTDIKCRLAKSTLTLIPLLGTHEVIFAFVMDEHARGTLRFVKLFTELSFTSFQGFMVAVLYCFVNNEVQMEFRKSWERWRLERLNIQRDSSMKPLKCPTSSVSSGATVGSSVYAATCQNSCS
The assay is described as follows: cell-based or functional assay.

Assay [5] deals with T4, GLP-1 receptor endogenously expressed …. The assay is described as follows: displacement of [125I]GLP-1 tracer from RIN m5f cell membranes (endogenous GLP-1 receptor), filter binding. In general terms: In a radioligand displacement assay an active substance lowers the binding of a labelled ligand.
Protocol: Membrane fractions were prepared from confluent cultures of RIN m5f cells. […] The reaction mixtures were constantly mixed at 23° C. for 2 hours. The reaction mixtures were filtered through glass filter pads presoaked with 0.3% PEI solution and rinsed with ice-cold phosphate buffered saline. Counts bound to the filer pads were determined using a scintillation counter and binding affinities were calculated using GraphPad PRISM® software (GraphPad Software, Inc., San Diego, Calif.).
For assay [6], the target named is Recombinant DPP-IV. In words: cell-based or functional assay. The source holds these as a separate data set.
Assay [7] deals with T2, ACE from rabbit lung. The assay is described as follows: cell-based or functional assay. The source holds these as a separate data set.

Read-outs that look alike come from different tables or passages of the source. Where no end group is shown, it is not given here. Side-chain parts run from the residue outwards. [ ]: non-standard residue; d: D form. lisinopril monoester = lisinopril with its ethyl ester not hydrolysed, amide-linked to γ-Abu; linker type G21 = not defined here; linker type C9 = not defined here; pGlu = O=C1CC[C@@H](C(=O)O)N1; AEEA = NCCOCCOCC(=O)O; GABA = NCCCC(=O)O A value given as a limit tells only on which side of the number the result lay.

Protocol for human GIP receptor: Membrane fractions were prepared from confluent cell cultures of HEK-GIPR, snap frozen, and stored at −80° C. until use. […] Reactions were allowed to proceed to equilibrium for 90 minutes at room temperature with constant shaking. The reaction mixtures were then filtered through 96-well glass fiber filter plates separating bound and unbound fractions of radioligand.

Regarding HAEGTFTSDVSSYLEGQAAKEFIAWLVKGR-NH2 [GLP-1], in the assay with Recombinant DPP-IV [1], the “DPP-IV IC50” value is over 3300 nM.

For the molecule HAEGTFTSDVTQQLDEKAAKEFIDWLINGGPSKEIIS-{linker type G21-lisinopril} (reading uncertain) [Compound 5713], the “GLP Cyclase EC50” value in assay [2] came out at 2.89 nM. Further, the “ACE inhibition IC50” value with ACE from rabbit lung [3] came to 700 nM.

On to HAEGTFTSDVTQQLDEKAAKEFIDWLINGGPSKEIIS [Compound 4202], for which the “GLP Cyclase EC50” value in assay [2] was 0.03 nM.

B1: [^2D-Ala^14Leu] GIP(1-30)-βAla-βAla-ε-NH-Lys(α-NH-Pyroglutamoyl)-Trp-Ala-Pro (peptide)
peptide 1: Y[dA]EGTFISDYSIALDKIHQQDFVNWLLAQK
peptide 2: [pGlu]KWAP-OH
modifications: not fully specified (C-terminus); printed as [^2D-Ala^14Leu] GIP(1-30)-βAla-βAla-ε-NH-Lys(α-NH-Pyroglutamoyl)-Trp-Ala-Pro; also: linker at chain B 2 to a chain's C-terminus via βAla-βAla
notes: also called [^2D-Ala,^14Leu]; GIP-(1-30)-β-Ala-β-Ala-Lys(α-NH-Pyroglutamoyl)-Trp-Ala-Pro-COOH
With B1, in the assay with human GIP receptor, the “GIP RBA % inhibition at 10 nM” value was 66%.

B2: [^2D-Ala] GIP(1-30)-Ado-Ado-Aun-βAla-βAla-ε-NH-Lys(α-NH-Pyroglutamoyl)-Trp-Ala-Pro (peptide)
peptide 1: Y[dA]EGTFISDYSIAMDKIHQQDFVNWLLAQK
peptide 2: [pGlu]KWAP
modifications: not fully specified (C-terminus); printed as [^2D-Ala] GIP(1-30)-Ado-Ado-Aun-βAla-βAla-ε-NH-Lys(α-NH-Pyroglutamoyl)-Trp-Ala-Pro; also: linker at chain B 2 to a chain's C-terminus via Ado-Ado-Aun-βAla-βAla
As for B2, the “GIP RBA % inhibition at 10 nM” value with human GIP receptor was determined as 70%.

B3: GLP-1(7-37)-GG-(S)-2,6-diamino-1-(thiazolidin-3-yl)hexan-1-one amide (peptide)
peptide: HAEGTFTSDVSSYLEGQAAKEFIAWLVKGRGGG
modifications: C-terminal Gly amide-linked to (S)-2,6-diamino-1-(thiazolidin-3-yl)hexan-1-one (Lys-thiazolidide, DPP-IV inhibitor motif)
notes: also called Cmpd 4844; 4844
For the molecule B3, in assay [4], the “GLP Cyclase EC50” value was found to be 0.13 nM. Moreover, in the assay with Recombinant DPP-IV [1], the “DPP-IV IC50” value amounted to 91 nM. The same molecule showed an IC50 in assay [5] of 0.087 nM.

B4: GLP-1(7-37)-GG-(S)-2,6-diamino-1-(thiazolidin-2-cyano-3-yl)hexan-1-one amide (peptide)
peptide: HAEGTFTSDVSSYLEGQAAKEFIAWLVKGRGGG
modifications: C-terminal Gly amide-linked to (S)-2,6-diamino-1-(thiazolidin-2-cyano-3-yl)hexan-1-one (Lys-2-cyanothiazolidide, DPP-IV inhibitor motif)
notes: also called Cmpd 4845; 4845
For B4, in assay [4], the “GLP Cyclase EC50” value worked out at 0.4 nM. Further, the “DPP-IV IC50” value in the assay with Recombinant DPP-IV [1] came to 76 nM. In addition, the IC50 in assay [5] is 0.1 nM.

On to IPI [Diprotin A (Ile-Pro-Ile)], for which the “DPP-IV inhibition IC50” value with Recombinant DPP-IV [6] came to 5100 nM.

B5: GLP-1(7-37)-γ-Abu-N^ε2Lys-(Pyr)-WAP-OH (peptide)
peptide 1: HAEGTFTSDVSSYLEGQAAKEFIAWLVKGRG
peptide 2: [pGlu]KWAP-OH
modifications: not fully specified (C-terminus); also: linker at chain B 2 to a chain's C-terminus via γ-Abu
As to B5, the “ACE inhibition IC50” value with ACE from rabbit lung [7] is over 10000 nM.

Consider YAEGTFISDYSIAMDKIHQQDFVNWLLAQK (not fully specified (N-terminus)) [N-(γ-L-Glu-2-(S)-cyano pyrrolidyl)-Ado-Ado) GIP(1-30)], for which the “GIP RBA % inhibition at 10 nM” value with human GIP receptor turned out to be 32%.

Take YAEGTFISDYSIAMDKIHQQDFVNWLLAQK (C-terminus extended by Ado-Lys-N-ε-(2-(S)-cyano pyrrolidyl)) [GIP(1-30)-Ado-Lys-N-ε-(2-(S)-cyano pyrrolidyl)]: in the assay with human GIP receptor, the “GIP RBA % inhibition at 10 nM” value worked out at 99%.

Turning to HAEGTFTSDVSSYLEGQAAKEFIAWLVKGRG-{GABA-lisinopril monoester} [GLP-1(7-37)-γ-Abu-CONH-lisinopril monoester], the “ACE inhibition IC50” value with ACE from rabbit lung [7] was over 100000 nM.

For HAEGTFTSDVSSYLEGQAAKEFIAWLVKGRG (C-terminus extended by γ-Abu-β-Ala and amide-linked (CONH) to lisinopril diacid) [GLP-1(7-37)-γ-Abu-β-Ala-CONH-lisinopril diacid], in the assay with ACE from rabbit lung [7], the “ACE inhibition IC50” value came to 180 nM.

HAEGTFTSDVSSYLEGQAAKEFIAWLVKGRG (lisinopril joined at the C-terminus through linker type C9 (FIG. 2)) [Compound 5547]: the “ACE inhibition IC50” value in the assay with ACE from rabbit lung [3] was 180 nM.

On to HAEGTFTSDVSSYLEGQAAKEFIAWLVKGRG (lisinopril joined at the C-terminus through linker type G21 (FIG. 2)) [Compound 5607], for which the “ACE inhibition IC50” value with ACE from rabbit lung [3] amounted to 100 nM.

In the case of HAEGTFTSDVTQQLDEKAAKEFIDWLINGGPSKEIIS-{linker type C9-lisinopril} (reading uncertain) [Compound 5714], the “GLP Cyclase EC50” value in assay [2] was found to be 2.93 nM. Besides, in the assay with ACE from rabbit lung [3], the “ACE inhibition IC50” value turned out to be 350 nM.

As for YAEGTFISDYSIAMDKIHQQDFVNWLLAQK (C-terminus extended by Ado-Ado-Lys-N-ε-(2-(S)-cyano pyrrolidyl)) [GIP(1-30)-Ado-Ado-Lys-N-ε-(2-(S)-cyano pyrrolidyl)], in the assay with human GIP receptor, the “GIP RBA % inhibition at 10 nM” value is 97%.

For the molecule YAEGTFISDYSIAMDKIHQQDFVNWLLAQK([AEEA-γ‑L‑Glu‑2‑(S)‑cyano pyrrolidyl]) [Lys^30 N-ε-(Ado-(γ-L-Glu-2-(S)-cyano pyrrolidyl)) GIP(1-30)], the “GIP RBA % inhibition at 10 nM” value with human GIP receptor came to 33%.

As for YAEGTFISDYSIALDKIHQQDFVNWLLAQK-{AEEA-Lys‑N‑ε‑(2-(S)-cyano pyrrolidyl)} [[^14Leu] GIP(1-30)-Ado-Lys-N-ε-(2-(S)-cyano pyrrolidyl)], the “GIP RBA % inhibition at 10 nM” value with human GIP receptor came out at 100%.
